In PMC3248800:
pKd: −log10 of the molar value.

Molecular target: αβ T cell receptor A6 (human)
Test: SPR

Row | Substance | pKd | dH
1 | Tel1p-HLA-A2 complex (S. cerevisiae Tel1p peptide … presented by wild-type HLA-A*0201) (from UniProt P61769 21-119) (peptide-MHC) | 4.39 | -3 kcal/mol
2 | Tel1p-HLA-A2 (A150P) complex (from UniProt P61769 21-119) (peptide-MHC) | 5.30 | –
